The values that follow come from patent publication US20110206696A1, “METHODS FOR INHIBITING BONE LOSS AND BONE METASTASIS” (THE WASHINGTON UNIVERSITY, priority 2010, published 2011).

For assay [1], the target named is T1, CD47 (Homo sapiens, UniProt Q08722). The note with it: cited from earlier work.
For assay [2], the target named is SIRP (Homo sapiens, UniProt P78324). The note with it: cited from earlier work.
In assay [3] the target is T1, CD47. The note with it: cited from earlier work. This is another data set of the same source.
Assay [4] deals with CD47−/− mice. As to the kind of experiment: In vivo RANKL injections, serum CTX and calvarial TRAP staining. The arrangement: species or system mouse. Particulars: RANKL injected subperiostally into midline calvaria of 8-week old mice, once a day for 5 days. As for the experimental part: A. 100 μg of RANKL was delivered subperiostally onto the midline calvaria of WT (n=5) and CD47−/− (n=5) mice. Serum CTX was measured before and after RANKL injections. WT vs. CD47−/− pre-RANKL p<0.01, WT vs. CD47−/− post-RANKL p=0.74, WT pre-RANKL vs. post-RANKL p=0.03, CD47−/− pre-RANKL vs. post-RANKL p<0.01. B. Representative images of TRAP stained calvarial sections. Arrows point to recruited OCs.
We measured serum CTX pre and post-RANKL injections in these mice. Pre-RANKL injection, CD47−/− mice had lower serum CTX as we have shown before (FIG. 4A). […] Furthermore, direct visualization of OC recruitment by TRAP staining on histological sections of calvarial bone in WT and CD47−/− mice confirmed the CTX results (FIG. 4B). We conclude that a high dose of RANKL rescued the cell-autonomous OC defect in CD47−/− mice.
CTX was measured from WT or CD47−/− mouse fasting serum by using a CTX ELISA system (Nordic Bioscience Diagnostics, Herlev, Denmark).
100 μg of RANKL in a volume of 40 μl was injected subperiostially in the midline calvaria in 8 week-old mice once a day for 5 consecutive days. On the sixth day, serum was collected, mice were sacrificed and the calvarial bone was isolated. TRAP staining was performed on fixed, decalcified and paraffin-embedded calvarial bone.

The subject of assay [5] is CD47−/− macrophages. Briefly: In vitro osteoclast differentiation, actin ring and bone resorption assays at high RANKL dose. It counts as cell-based, mouse. Particulars: RANKL increased two-fold to 100 ng/ml; 50 ng/ml M-CSF. As for the experimental part: A. FACS analysis on WT and CD47-/- total bone marrow. WT and CD47-/- total bone marrow was stained for CD47 and F4/80. B. QPCR graph showing induction of CD47 transcript over the 7-day course of OC differentiation. C. Representative images of day 5 OCs cultured on bone and stained for TRAP (left panel) and cultured on bovine bone and stained for actin rings (right panel) in the presence of 50 ng/ml of M-CSF and 50 ng/ml or 100 ng/ml of RANKL are shown. D. Representative images of day 5 OCs cultured on bone and stained for resorption lacunae in the presence of 50 ng/ml of M-CSF and either 50 ng/ml of RANKL (left panel) and 100 ng/ml of RANKL (right panel) are shown. E. The pit (resorption lacunae) area was measured by histomorphometry. 50 ng/ml RANKL (p=0.04), 100 ng/ml RANKL (p=0.18). To investigate if the OC defect is cell-autonomous in CD474-/- mice, it was first determined if macrophages or OC precursors were decreased in CD47-/- bone marrow. WT and CD47-/- whole bone marrow were stained with CD47-FITC as control and F4/80 as a macrophage marker and carried out flow cytometry. No significant difference in F4/80+cells in CD47-/- bone marrow compared to WT control was observed (FIG. 3A). To test the differentiation of macrophages to OCs, we cultured whole bone marrow in M-CSF alone for 3 days to enrich for macrophages. […]

T1 sequence (Q08722 19-323, species assumed): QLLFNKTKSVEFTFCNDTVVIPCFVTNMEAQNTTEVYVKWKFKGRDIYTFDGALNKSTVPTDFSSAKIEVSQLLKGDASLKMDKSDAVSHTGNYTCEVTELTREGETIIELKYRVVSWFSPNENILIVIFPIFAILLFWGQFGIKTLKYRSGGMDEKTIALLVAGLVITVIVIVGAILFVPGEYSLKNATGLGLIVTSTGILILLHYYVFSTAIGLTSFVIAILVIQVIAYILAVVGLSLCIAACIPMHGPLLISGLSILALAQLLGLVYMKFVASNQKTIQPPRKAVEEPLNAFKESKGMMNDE
SIRP, sequence (P78324 31-504, species assumed): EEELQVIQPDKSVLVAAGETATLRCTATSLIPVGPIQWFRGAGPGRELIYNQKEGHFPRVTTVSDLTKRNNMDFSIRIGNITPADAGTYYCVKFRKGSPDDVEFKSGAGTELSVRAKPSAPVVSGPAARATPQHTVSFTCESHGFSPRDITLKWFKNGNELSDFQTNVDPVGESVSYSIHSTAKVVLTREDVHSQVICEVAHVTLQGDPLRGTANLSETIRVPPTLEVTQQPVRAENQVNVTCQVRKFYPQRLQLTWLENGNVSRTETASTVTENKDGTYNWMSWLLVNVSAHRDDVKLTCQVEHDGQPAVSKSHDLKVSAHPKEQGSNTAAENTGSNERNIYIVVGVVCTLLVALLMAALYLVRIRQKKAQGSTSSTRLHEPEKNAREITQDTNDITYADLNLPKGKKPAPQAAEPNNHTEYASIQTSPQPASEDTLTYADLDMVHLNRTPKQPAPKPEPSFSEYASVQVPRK

For CERVIGTGWVRC, the “CD47 activity / signaling” value in assay [1] is reported as “inhibit CD47 activity in vitro”. Besides, the “Binding to SIRP” value in assay [2] was “binds to SIRP”.

IGWKDFTAYR: the “Binding to CD47” value in assay [3] is on record as “found to bind CD47”.

With “p7N3: CD47-binding peptide from the C-terminal module of TSP1, FIRWMYEGKK”, in assay [1], the “CD47 activity / signaling” value was “blocked (or disrupted) CD47 signaling”.

B1: RANKL: receptor activator of nuclear factor-KB ligand, cytokine for differentiation of macrophages into osteoclasts (protein, UniProt O14788 140-317, looked up)
Tumor necrosis factor ligand …: IRAEKAMVDGSWLDLAKRSKLEAQPFAHLTINATDIPSGSHKVSLSSWYHDRGWAKISNMTFSNGKLIVNQDGFYYLYANICFRHHETSGDLATEYLQLMVYVTKTSIKIPSSHTLMKGGSTKYWSGNSEFHFYSINVGGFFKLRSGEEISIEVSNPSLLDPDQDATYFGAFKVRDID
modifications: GST tag
On to B1, for which, in assay [4], the “OC activation as measured by serum CTX, WT vs CD47−/− mice after RANKL” value was “not significantly different”. For the same molecule, in assay [5], the “OC differentiation of CD47−/− cells” value is recorded as “OC differentiation defect was largely rescued”.
